From article PMC13370731
Several values for one entry are separate records, joined by “and”; a condition that tells them apart may be missing. Identical values can stand only once.

Assays:
[1] = molecular target: MtrR‐His6 (small protein MtrR with a C‐terminal His‐tag, heterologously expressed in Escherichia coli) (Methanosarcina mazei Gö1); assay: SEC; IMAC‐purified MtrR‐His6 on an Enrich SEC 70 column, detection at 214 nm, calibrated with a standard protein mixture; phosphate buffer (50 mM sodium phosphate, 300 mM NaCl, pH 8.0); peaks at 10 and 13 mL
[2] = molecular target: soluble domain of the MtrA subunit (M1 – S168), strep‐tagged, RED‐labeled (Methanosarcina mazei Gö1) (UniProt O59640); assay: MST; 20 nM RED‐labeled strep‐MtrA with MtrR‐His6 in 16 concentrations (calculated on monomeric molecular mass); standard capillaries, 100% excitation power, medium MST power; MO.AFFINITY analysis; two biological replicates
UniProt O59640, sequence (O59640 1-168): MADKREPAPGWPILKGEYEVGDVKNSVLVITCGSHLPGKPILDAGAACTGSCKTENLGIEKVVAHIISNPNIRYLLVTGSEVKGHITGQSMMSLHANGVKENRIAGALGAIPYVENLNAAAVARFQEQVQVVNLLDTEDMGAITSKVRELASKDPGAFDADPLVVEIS

stoichiometry N [1]: 2 and < 6
Kd [2]: 110 nM
Substance: MtrR‐His6 (small protein MtrR with a C‐terminal His‐tag, heterologously expressed in Escherichia coli) (natural protein)
